Source: patent publication US20060147922

System: chk2, endogenous (HEK 293 and MCF-7 cell extracts)
Sequence (chain, as listed by the source): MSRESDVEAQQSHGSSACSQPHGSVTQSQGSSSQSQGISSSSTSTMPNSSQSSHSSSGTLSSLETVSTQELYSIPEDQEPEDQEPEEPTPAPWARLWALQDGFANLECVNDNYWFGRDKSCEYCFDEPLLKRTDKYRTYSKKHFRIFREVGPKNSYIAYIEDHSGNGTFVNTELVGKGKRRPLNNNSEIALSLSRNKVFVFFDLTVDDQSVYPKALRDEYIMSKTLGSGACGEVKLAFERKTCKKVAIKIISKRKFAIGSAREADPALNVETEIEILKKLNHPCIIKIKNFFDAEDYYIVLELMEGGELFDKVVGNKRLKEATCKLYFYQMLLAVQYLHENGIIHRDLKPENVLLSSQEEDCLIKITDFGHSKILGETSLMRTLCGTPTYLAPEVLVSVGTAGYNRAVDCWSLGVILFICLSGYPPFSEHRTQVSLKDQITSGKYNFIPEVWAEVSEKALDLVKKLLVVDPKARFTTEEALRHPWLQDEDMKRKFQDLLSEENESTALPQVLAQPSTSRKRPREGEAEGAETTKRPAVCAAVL

Substance: EDD protein, full length (aa 1-2799)
- CHK2 kinase activity towards a GST-cdc25C substrate post-IR in the presence and absence of EDD: activation of CHK2 was delayed in cells lacking EDD and these cells were impaired in their ability to reach maximal CHK2 kinase activity
- DNA damage-induced phosphorylation of CHK2 on T68 after EDD depletion by RNA interference: considerably diminished compared to control cells
